The target in the test is 原核表达的重组人GFAP蛋白 (PET28a-GFAP, 大肠杆菌BL21表达, Ni-NTA纯化) (human) (UniProt P14136). The experiment in a line: direct ELISA, purified GFAP coated at 10 μg/ml, purified antibody diluted 1:200 to 1:12800, goat anti-mouse IgG-HRP, OD450.

This passage reports ELISA滴度 (dilution factor (1:x)) results from patent publication CN105646705A.

Sequence of UniProt P14136 (P14136 other isoform, or with tags, fused parts or gaps): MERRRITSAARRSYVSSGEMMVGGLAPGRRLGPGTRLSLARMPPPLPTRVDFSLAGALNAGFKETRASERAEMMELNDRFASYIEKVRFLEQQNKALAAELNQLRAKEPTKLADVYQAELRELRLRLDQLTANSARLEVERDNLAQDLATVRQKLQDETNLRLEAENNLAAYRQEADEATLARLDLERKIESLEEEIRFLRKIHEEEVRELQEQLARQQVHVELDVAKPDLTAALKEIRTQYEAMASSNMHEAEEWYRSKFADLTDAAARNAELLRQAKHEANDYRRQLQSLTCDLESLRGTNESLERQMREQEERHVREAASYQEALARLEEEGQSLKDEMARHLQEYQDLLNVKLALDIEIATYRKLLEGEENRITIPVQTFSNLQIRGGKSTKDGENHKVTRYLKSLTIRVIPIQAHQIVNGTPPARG

B1: 小鼠抗人GFAP单克隆抗体 5C8 (杂交瘤细胞株5C8, CGMCC No.6915) (antibody, part only; not given: light chain variable region, V domains shown, part only)
VH: LASTATGVHSQVQLQQPGAELVRPGASVKLSCKASGYTFTSYWMNWVKQRPGQGLEWIGMINPSDSEIQYNQMFKDKATLTVDKSSSTAYIHLTSLTSEDSAVYYCARGLGRYWGQGTTLTVSPASTTPPSV
Molecule B1 had an ELISA滴度 (dilution factor (1:x)) of more than 10000.
